Numbering of substitutions follows the chain as printed. Numbers in names are those of the source.
B1: MAG1–5 wt glycosylated (full extracellular segment of mouse myelin-associated glycoprotein) (domain or fragment, UniProt P20917 20-508, looked up)
chain: GHWGAWMPSTISAFEGTCVSIPCRFDFPDELRPAVVHGVWYFNSPYPKNYPPVVFKSRTQVVHESFQGRSRLLGDLGLRNCTLLLSTLSPELGGKYYFRGDLGGYNQYTFSEHSVLDIVNTPNIVVPPEVVAGTEVEVSCMVPDNCPELRPELSWLGHEGLGEPTVLGRLREDEGTWVQVSLLHFVPTREANGHRLGCQAAFPNTTLQFEGYASLDVKYPPVIVEMNSSVEAIEGSHVSLLCGADSNPPPLLTWMRDGMVLREAVAKSLYLDLEEVTPGEDGVYACLAENAYGQDNRTVELSVMYAPWKPTVNGTVVAVEGETVSILCSTQSNPDPILTIFKEKQILATVIYESQLQLELPAVTPEDDGEYWCVAENQYGQRATAFNLSVEFAPIILLESHCAAARDTVQCLCVVKSNPEPSVAFELPSRNVTVNETEREFVYSERSGLLLTSILTIRGQAQAPPRVICTSRNLYGTQSLELPFQGAHR
modifications: N-linked glycans (made in GnTI- cells); C-mannosylation on W22
notes: Myelin-associated glycoprotein (MAG), mouse, Ig domains 1-5, residues 20-508 (UniProt numbering, starts after the signal peptide); template mouse S-MAG cDNA; Vector pUPE107.03 with a cystatin secretion signal peptide and a C-terminal His6-tag; also called wt MAG1–5; MAG full ectodomain; source: HEK293 GnTI- EBNA1 cells in suspension, transient, secreted; purified (Ni-NTA, SEC)
B2: MAG1–5 wt deglycosylated (domain or fragment, mouse, UniProt P20917 20-508, looked up)
chain: B1 chain
modifications: N-linked glycans trimmed down to single N-Acetylglucosamines by Endo-Hf; C-mannosylation on W22
notes: Myelin-associated glycoprotein (MAG), mouse, Ig domains 1-5, residues 20-508 (UniProt numbering, starts after the signal peptide); template mouse S-MAG cDNA; Same construct as m1 after Endo-Hf treatment; also called deglycosylated MAG1–5; deglycosylated wt MAG1–5; source: HEK293 GnTI- EBNA1 cells in suspension, transient, secreted; purified (Ni-NTA, SEC); deglycosylated with Endo-Hf overnight at …
B3: MAG1–5 N406Q deglycosylated (domain or fragment, mouse, UniProt P20917 20-508, looked up)
chain: B1 chain with N387Q
modifications: N-linked glycans trimmed down to single N-Acetylglucosamines by Endo-Hf
notes: Myelin-associated glycoprotein (MAG), mouse, Ig domains 1-5, residues 20-508 (UniProt numbering), with N406Q; also called deglycosylated MAG1–5 N406Q; source: HEK293 GnTI- EBNA1 cells in suspension, transient, secreted; purified (Ni-NTA, SEC); deglycosylated with Endo-Hf
B4: MAG1–5 N406Q glycosylated (domain or fragment, mouse, UniProt P20917 20-508, looked up)
chain: B1 chain with N387Q
modifications: N-linked glycans (made in GnTI- cells), lacks the N-linked glycan on residue 406
notes: Myelin-associated glycoprotein (MAG), mouse, Ig domains 1-5, residues 20-508 (UniProt numbering), with N406Q; also called N406Q mutant; source: HEK293 GnTI- EBNA1 cells in suspension, transient, secreted; purified (Ni-NTA, SEC)
B5: Myelin-associated glycoprotein (MAG, Siglec4a): N406Q (protein)
parent chain: MIFLATLPLFWIMISASRGGHWGAWMPSTISAFEGTCVSIPCRFDFPDELRPAVVHGVWYFNSPYPKNYPPVVFKSRTQVVHESFQGRSRLLGDLGLRNCTLLLSTLSPELGGKYYFRGDLGGYNQYTFSEHSVLDIVNTPNIVVPPEVVAGTEVEVSCMVPDNCPELRPELSWLGHEGLGEPTVLGRLREDEGTWVQVSLLHFVPTREANGHRLGCQAAFPNTTLQFEGYASLDVKYPPVIVEMNSSVEAIEGSHVSLLCGADSNPPPLLTWMRDGMVLREAVAKSLYLDLEEVTPGEDGVYACLAENAYGQDNRTVELSVMYAPWKPTVNGTVVAVEGETVSILCSTQSNPDPILTIFKEKQILATVIYESQLQLELPAVTPEDDGEYWCVAENQYGQRATAFNLSVEFAPIILLESHCAAARDTVQCLCVVKSNPEPSVAFELPSRNVTVNETEREFVYSERSGLLLTSILTIRGQAQAPPRVICTSRNLYGTQSLELPFQGAHRLMWAKIGPVGAVVAFAILIAIVCYITQTRRKKNVTESSSFSGGDNPHVLYSPEFRISGAPDKYESEKQRLGSERRLLGLRGESPELDLSYSHSDLGKRPTKDSYTLTEELAEYAEIRVK
B6: Myelin-associated glycoprotein (MAG, Siglec4a): Endo-Hf (protein)
parent chain: B5 parent chain

Experiments:
[1] = target: the molecule itself; test: SAXS; ESRF BM29, SEC buffer (150 mM NaCl, 20 mM HEPES pH 7.5), 20 °C (277 K for deglycosylated MAG1–5 N406Q), single concentration of 33-52 μM for each sample; monomer to dimer
[2] = target: the molecule itself; test: AUC; sedimentation equilibrium, SEC buffer (150 mM NaCl, 20 mM HEPES pH 7.5), 20 °C, 7,500, 14,000 and 20,000 r.p.m., global analysis of several concentrations, speeds and wavelengths; monomer to dimer
[3] = target: the molecule itself; test: SEC; Superdex200 Hiload 16/60, 150 mM NaCl, 20 mM HEPES pH 7.5
SAXS = details: glycan lost; control: glycosylated wt MAG1–5
[4] = size exclusion chromatography; details: glycan lost; control: wt and other MAG constructs
[5] = sedimentation equilibrium AUC, monomer-dimer fit; details: glycan lost; control: glycosylated wt MAG1–5

| Protein | Kd [2] | stoichiometry N [2] | oligomerisation, other: Rg (SAXS) | other results |
| --- | --- | --- | --- | --- |
| B1 | 382 µM | 2 | – | fraction of dimer (OLIGOMER fit, monomer:dimer ratio at 52 μM) [1]: 0.28 fraction |
| B2 | 167 µM | 2 | – | – |
| B3 | – | – | – | binding result [1]: binds |
| B4 | – | – | – | binding result [3]: binds |
| B5 | – | – | increases, 7.3 vs 6.8 | oligomerisation [4]: increases |
| B6 | – | – | increases, 7.3 vs 6.8 | oligomerisation, KD [5]: increases, 167 vs 382 |

From publication PMC5150538, “Structural basis of myelin-associated glycoprotein adhesion and signalling” (Nature Communications, 2016)
